The values below come from patent US20240132857.

This data set addresses Ub^1-74, P0CG48.

Sequence of Ub^1-74, P0CG48 (P0CG48 whole entry, looked up, tested part not stated): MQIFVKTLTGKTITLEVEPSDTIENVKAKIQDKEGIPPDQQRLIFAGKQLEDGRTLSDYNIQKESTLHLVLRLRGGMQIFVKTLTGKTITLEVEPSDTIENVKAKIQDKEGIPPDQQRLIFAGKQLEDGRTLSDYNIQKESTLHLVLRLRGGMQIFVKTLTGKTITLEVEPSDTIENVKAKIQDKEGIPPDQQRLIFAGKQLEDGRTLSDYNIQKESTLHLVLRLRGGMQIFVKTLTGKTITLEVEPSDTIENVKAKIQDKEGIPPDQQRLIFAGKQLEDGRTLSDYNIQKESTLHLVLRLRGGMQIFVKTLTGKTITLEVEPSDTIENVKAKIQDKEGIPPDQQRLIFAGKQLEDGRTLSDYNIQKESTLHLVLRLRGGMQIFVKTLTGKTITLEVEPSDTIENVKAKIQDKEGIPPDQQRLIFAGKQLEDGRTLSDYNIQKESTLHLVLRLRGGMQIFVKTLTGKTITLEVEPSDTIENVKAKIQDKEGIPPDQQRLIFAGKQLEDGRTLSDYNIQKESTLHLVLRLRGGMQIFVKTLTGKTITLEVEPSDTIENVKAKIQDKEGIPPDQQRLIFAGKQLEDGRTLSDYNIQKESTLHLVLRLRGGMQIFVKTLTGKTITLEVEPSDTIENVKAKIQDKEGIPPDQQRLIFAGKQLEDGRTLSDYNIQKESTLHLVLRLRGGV

B1: Ube2N^D119A (protein)
chain: GMAGLPRRIIKETQRLLAEPVPGIKAEPDESNARYFHVVIAGPQDSPFEGGTFKLELFLPEEYPMAAPKVRFMTKIYHPNVDKLGRICLDILKDKWSPALQIRTVLLSIQALLSAPNPDAPLANDVAEQWKTNEAQAIETARAWTRLYAMNNI
For the protein B1, the “KM of di-ubiquitin formation, fold increase against wild-type Ube2N” value is “modestly increased the KM by ˜4 and ˜7-fold, respectively”; the “kcat of di-ubiquitin formation, fold reduction against wild-type Ube2N” value (“kcat … fold reduction against wild-type Ube2N” for short) is “Mutation to alanine reduced kcat 100-fold”.

B2: Ube2N^D119N (protein)
chain: GMAGLPRRIIKETQRLLAEPVPGIKAEPDESNARYFHVVIAGPQDSPFEGGTFKLELFLPEEYPMAAPKVRFMTKIYHPNVDKLGRICLDILKDKWSPALQIRTVLLSIQALLSAPNPDNPLANDVAEQWKTNEAQAIETARAWTRLYAMNNI
As for B2, the “KM of di-ubiquitin formation, fold increase against wild-type Ube2N” value was “modestly increased the KM by ˜4 and ˜7-fold, respectively”; the “kcat … fold reduction against wild-type Ube2N” value is given as “mutation to asparagine 30-fold”.

B3: Ube2N^N123A (protein)
chain: GMAGLPRRIIKETQRLLAEPVPGIKAEPDESNARYFHVVIAGPQDSPFEGGTFKLELFLPEEYPMAAPKVRFMTKIYHPNVDKLGRICLDILKDKWSPALQIRTVLLSIQALLSAPNPDDPLAADVAEQWKTNEAQAIETARAWTRLYAMNNI
As for B3, the “kcat … fold reduction against wild-type Ube2N” value is “The ˜3-fold reduction in kcat”.

B4: Ube2N^D124A (protein)
chain: GMAGLPRRIIKETQRLLAEPVPGIKAEPDESNARYFHVVIAGPQDSPFEGGTFKLELFLPEEYPMAAPKVRFMTKIYHPNVDKLGRICLDILKDKWSPALQIRTVLLSIQALLSAPNPDDPLANAVAEQWKTNEAQAIETARAWTRLYAMNNI
Consider B4, for which the “kcat … fold reduction against wild-type Ube2N” value is reported as “The ˜3-fold reduction in kcat”.
